This note sets out measurements from paper PMC3088644.

The target in this experiment is mitochondrial ATP synthase (mouse (endogenous in MEFs)) (UniProt Q03265). In words: native gel or EMSA.

What is called stoichiometry N is a count of units in the complex or per binding partner. On to “mitochondrial ATP synthase (from UniProt Q03265 44-553) (complex)”, for which the stoichiometry N came to 2.
